Results: patent US20240101668A1 (WUGEN, published 2024)

Columns and labels:
[1] = biological target: T1, huCD33-R69 stably expressed on Jurkat cells (human, UniProt P20138 18-364); test: FACS on cells;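 further: fixed Jurkat lines probed with myc-tagged scFv periplasmic extracts, anti-myc PE flow cytometry, PE MFI fold binned − <2, + 2–10, ++ 10–30, +++ >30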
T1 construct: whole, on cells; >200,000 receptors per cell; also called CD33 WT; CD33^ARG69

[2] = biological target: T2, huCD33-G69 stably expressed on Jurkat cells (human, UniProt P20138 18-364); test: FACS on cells;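 further: fixed Jurkat lines probed with myc-tagged scFv periplasmic extracts, anti-myc PE flow cytometry, PE MFI fold binned − <2, + 2–10, ++ 10–30, +++ >30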
T2 construct: whole, on cells; >200,000 receptors per cell; also called CD33 Mutant; CD33 R69G
T2 sequence (P20138 18-364 R69G): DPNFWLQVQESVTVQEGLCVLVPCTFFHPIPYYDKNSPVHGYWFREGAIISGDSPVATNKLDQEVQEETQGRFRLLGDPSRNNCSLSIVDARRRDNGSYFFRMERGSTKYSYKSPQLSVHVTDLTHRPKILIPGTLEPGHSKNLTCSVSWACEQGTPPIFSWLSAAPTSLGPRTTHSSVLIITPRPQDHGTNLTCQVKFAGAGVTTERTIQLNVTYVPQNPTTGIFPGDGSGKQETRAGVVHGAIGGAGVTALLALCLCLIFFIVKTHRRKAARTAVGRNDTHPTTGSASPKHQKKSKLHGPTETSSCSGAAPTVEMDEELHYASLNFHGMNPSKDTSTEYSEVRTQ

[3] = biological target: T3, huCD33-G69-Fc recombinant protein (human, UniProt P20138 18-259); test: BLI;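 further: biolayer interferometry: scFvs captured from periplasmic extracts on anti-V5-loaded streptavidin biosensors, antigen association for 2 min, buffer dissociation for 5 min, 1:1 Langmuir fit giving off-rate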
T3 construct: extracellular domain; also called CD33 R69G
T3 sequence (P20138 18-259 R69G): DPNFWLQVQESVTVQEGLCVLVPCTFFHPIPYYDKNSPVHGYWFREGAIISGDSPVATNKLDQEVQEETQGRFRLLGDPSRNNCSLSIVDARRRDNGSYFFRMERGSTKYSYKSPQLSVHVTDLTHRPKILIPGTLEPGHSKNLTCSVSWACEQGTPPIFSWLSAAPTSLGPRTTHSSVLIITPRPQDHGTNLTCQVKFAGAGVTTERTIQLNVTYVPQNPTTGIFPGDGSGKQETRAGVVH
Protocol: Discovered scFvs were analyzed for binding to huCD33-R69-His or huCD33-G69-Fc recombinant proteins (for anti-CD33 scFvs; for CLL-1 scFvs, huCLL1-K244-Avi-Tev-His or huCLL1-Q244-Avi-Tev-His were used; for FLT3, huFLT3-T227-His or huFLT3-M227-Fc were used) using BLI on a ForteBio Octet HTX instrument. Streptavidin-coated biosensors were loaded with biotinylated anti-V5 tag monoclonal antibody for 5 min and were then quenched and blocked with 20 μM amine-PEG2-Biotin for 5 min. scFvs were captured on biosensors from scFv clone periplasmic extracts. huCD33 (or huCLL-1, or huFLT3) proteins were then associated with the captured scFvs for 2 minutes, followed by dissociation with buffer (1×HBST [10 mM HEPES pH 7.4, 150 mM NaCl, 0.05% Tween-20], 1 g/L BSA) for 5 minutes. […] Data was fitted with 1:1 Langmuir equation and off-rate values were reported.

T1 sequence (P20138 18-364): as the sequence (P20138 18-364 R69G) above, with G52R counted along it

B1: Polypeptide No. 106 (scFv, V domains shown)
VH: QVQLVQSGAEVKKPGASVKVSCKASGYTFTGYYMHWVRQAPGQGLEWMGRIKPNSGGTDYAQKFQGRVTMTRDTSTSTVYMELSSLRSEDTAVYYCARGAYSGSYYGPIEYFQHWGQGTLVTVSS
VL: DIQMTQSPSSLSASVGDRVTITCRASQSISWFLNWYQQKPGKAPKLLIYAASSLQNGVPSRFSGSGSGTDFTLTISSLQPEDFATYYCQQYGSFPPTFGGGTKVEIKR
notes: scFv
- FACS geometric mean fold change over Jurkat parental [1]: 2 to 10 fold
- FACS geometric mean fold change over Jurkat parental [2]: 2 to 10 fold
- binding result [3]: binds

B2: Polypeptide No. 107 (scFv, V domains shown)
VH: QVQLVQSGAEVKKPGSSVKVSCKASGYTFTDYYIHWVRQAPGQGLEWMGGIIPIFGTANYAQKFQGRVTITADESTSTAYMELSSLRSEDTAVYYCAREPLWFGESSPHDYYGMDVWGQGTLVTVSS
VL: DIQMTQSPSSLSASVGDRVTITCQASQDISNYLNWYQQKPGKAPKLLIYAASTLQSGVPSRFSGSGSGTDFTLTISSLQPEDFATYYCQQSYSSPPTFGQGTKVEIKR
notes: scFv
- FACS geometric mean fold change over Jurkat parental [1]: 10 to 30 fold
- FACS geometric mean fold change over Jurkat parental [2]: 10 to 30 fold
- binding result [3]: binds

B3: Polypeptide No. 109 (scFv, V domains shown)
VH: QVQLVQSGAEVKKPGSSVKVSCKASGYTFTTYGISWVRQAPGQGLEWMGWMNPNSGNTGYAQKFQGRVTITADESTSTAYMELSSLRSEDTAVYYCAREGGDGDYPDYWGQGTLVTVSS
VL: EIVMTQSPATLSVSPGERATLSCRASQSISSSSLAWYQQKPGQAPRLLIYGASTRATGIPARFSGSGSGTEFTLTISSLQSEDFAVYYCQQYETAPYTFGQGTKLEIKR
notes: scFv
- FACS geometric mean fold change over Jurkat parental [1]: 10 to 30 fold
- FACS geometric mean fold change over Jurkat parental [2]: 10 to 30 fold
- binding result [3]: binds

B4: Polypeptide No. 110 (scFv, V domains shown)
VH: QVQLVQSGAEVKKPGASVKVSCKASGYTFTDYYVHWVRQAPGQGLEWMGWMNPNSGNTGYAQKFQGRVTMTRDTSTSTVYMELSSLRSEDTAVYYCARDFIWVEGYLASPPPRFDYWGQGTLVTVSS
VL: DIQMTQSPSSLSASVGDRVTITCRASQRIGNWLAWYQQKPGKAPKLLIYAASSLQSGVPSRFSGSGSGTDFTLTISSLQPEDFATYYCQQSYSTPLTFGQGTKLEIKR
notes: scFv
- FACS geometric mean fold change over Jurkat parental [1]: > 30 fold
- FACS geometric mean fold change over Jurkat parental [2]: > 30 fold
- binding result [3]: binds

B5: Polypeptide No. 111 (scFv, V domains shown)
VH: QVQLVQSGAEVKKPGASVKVSCKASGGTFTSYGISWVRQAPGQGLEWMGWINPNTGVTNYAQDFQGRVTMTRDTSTSTVYMELSSLRSEDTAVYYCANEQGGFDYWGQGTLVTVSS
VL: EIVMTQSPATLSVSPGERATLSCRASQSVAGSYLAWYQQKPGQAPRLLIYGASTRATGIPARFSGSGSGTEFTLTISSLQSEDFAVYYCQQYYSTPLTFGGGTKVEIKR
notes: scFv
- FACS geometric mean fold change over Jurkat parental [1]: > 30 fold
- FACS geometric mean fold change over Jurkat parental [2]: 10 to 30 fold
- binding result [3]: binds

B6: Polypeptide No. 112 (scFv, V domains shown)
VH: QVQLVQSGAEVKKPGSSVKVSCKASGSTLTGYDIHWVRQAPGQGLEWMGGIIPFLGTASYAQEFQGRVTITADESTSTAYMELSSLRSEDTAVYYCARGGGSGYDLDYWGQGTLVTVSS
VL: DIQMTQSPSSLSASVGDRVTITCRSSESISSWLAWYQQKPGKAPKLLIYSASTLQSGVPSRFSGSGSGTDFTLTISSLQPEDFATYYCQQSYSTPVTFGQGTRLEIKR
notes: scFv
- FACS geometric mean fold change over Jurkat parental [1]: 2 to 10 fold
- FACS geometric mean fold change over Jurkat parental [2]: 2 to 10 fold
- binding result [3]: binds

B7: Polypeptide No. 113 (scFv, V domains shown)
VH: QVQLVQSGAEVKKPGSSVKVSCKASGGTFSSYDINWVRQAPGQGLEWMGGLIPVFGTTHYAQNFQGRVTITADESTSTAYMELSSLRSEDTAVYYCATGLGVTTSNYYYGMDVWGQGTLVTVSS
VL: DIQMTQSPSSLSASVGDRVTITCRASQGIRNDIGWYQQKPGKAPKLLIYAASTLQSGVPSRFSGSGSGTDFTLTISSLQPEDFATYYCQQTYMMPYTFGQGTKLEIKR
notes: scFv
- FACS geometric mean fold change over Jurkat parental [1]: > 30 fold
- FACS geometric mean fold change over Jurkat parental [2]: 10 to 30 fold
- binding result [3]: binds

B8: Polypeptide No. 114 (scFv, V domains shown)
VH: QVQLVQSGAEVKKPGASVKVSCKASGGTFSKYAISWVRQAPGQGLEWMGWMNPNSGNTGYAQKFQGRVTMTRDTSTSTVYMELSSLRSEDTAVYYCARDQGLTGYFDLWGRGTLVTVSS
VL: DIQMTQSPSSLSASVGDRVTITCRASQSIGNWLAWYQQKPGKAPKLLIYKASSLESGVPSRFSGSGSGTDFTLTISSLQPEDFATYYCQQSYNTPPTFGPGTKVDIKR
notes: scFv
- FACS geometric mean fold change over Jurkat parental [1]: > 30 fold
- FACS geometric mean fold change over Jurkat parental [2]: 10 to 30 fold
- binding result [3]: binds

B9: Polypeptide No. 115 (scFv, V domains shown)
VH: QVQLVQSGAEVKKPGASVKVSCKASGYTFTGYYMHWVRQAPGQGLEWMGIISPSGGSPTYAQKFQGRVTMTRDTSTSTVYMELSSLRSEDTAVYYCAREGNGGMDVWGQGTTVTVSS
VL: not shown
notes: scFv
- FACS geometric mean fold change over Jurkat parental [1]: 10 to 30 fold
- FACS geometric mean fold change over Jurkat parental [2]: 10 to 30 fold
- binding result [3]: binds

B10: Polypeptide No. 116 (scFv, V domains shown)
VH: EVQLLESGGGLVQPGGSLRLSCAASGFTFSNYAMAWVRQAPGKGLEWVSAISGSGGGTYYADSVKGRFTISRDNSKNTLYLQMNSLRAEDTAVYYCAREGGYDPDYYYYGMDVWGQGTTVTVSS
VL: DIQMTQSPSSLSASVGDRVTITCRASQSISSYLNWYQQKPGKAPKLLIYATSRLQSGVPSRFSGSGSGTDFTLTISSLQPEDFATYYCQQGFNFPPTFGGGTKVEIKR
notes: scFv
- FACS geometric mean fold change over Jurkat parental [1]: > 30 fold
- FACS geometric mean fold change over Jurkat parental [2]: > 30 fold
- binding result [3]: binds

B11: Polypeptide No. 117 (scFv, V domains shown)
VH: EVQLLESGGGLVQPGGSLRLSCAASGFTFGDYPMSWVRQAPGKGLEWVAGISYDGLNEHYADSVKGRFTISRDNSKNTLYLQMNSLRAEDTAVYYCARDRDSGPSGFQHWGQGTLVTVSS
VL: DIQMTQSPSSLSASVGDRVTITCRASQTIGTWLAWYQQKPGKAPKLLIYDASSLESGVPSRFSGSGSGTDFTLTISSLQPEDFATYYCQQSYSTPPTFGQGTKVEIKR
notes: scFv
- FACS geometric mean fold change over Jurkat parental [1]: 2 to 10 fold
- FACS geometric mean fold change over Jurkat parental [2]: 2 to 10 fold
- binding result [3]: binds

B12: Polypeptide No. 118 (scFv, V domains shown)
VH: EVQLVESGGGLVKPGGSLRLSCAASGFTISNAWMSWVRQAPGKGLEWVAHIWNDGSQKYYADSVKGRFTISRDDSKNTLYLQMNSLKTEDTAVYYCARDGALGVGPDDYWGQGTLVTVSS
VL: DIVMTQSPLSLPVTPGEPASISCRSSQSLLHSNGYNYLDWYLQKPGQSPQLLIYAASSLQSGVPDRFSGSGSGTDFTLKISRVEAEDVGVYYCMQGLQTPHTFGGGTKVEIKR
notes: scFv
- FACS geometric mean fold change over Jurkat parental [1]: 10 to 30 fold
- FACS geometric mean fold change over Jurkat parental [2]: 2 to 10 fold
- binding result [3]: binds

B13: Polypeptide No. 119 (scFv, V domains shown)
VH: QVQLVQSGAEVKKPGASVKVSCKASGNTLTNDHIHWVRQAPGQGLEWMGWMNPNSGDTGYAQKFQGRVTMTRDTSTSTVYMELSSLRSEDTAVYYCARAGVDTAMVTYYYYGMDVWGQGTTVTVSS
VL: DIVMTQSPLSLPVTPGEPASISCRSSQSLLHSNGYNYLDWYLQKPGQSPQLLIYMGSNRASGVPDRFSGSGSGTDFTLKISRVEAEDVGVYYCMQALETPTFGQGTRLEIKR
notes: scFv
- FACS geometric mean fold change over Jurkat parental [1]: 10 to 30 fold
- FACS geometric mean fold change over Jurkat parental [2]: > 30 fold
- binding result [3]: binds

B14: Polypeptide No. 120 (scFv, V domains shown)
VH: QVQLVQSGAEVKKPGASVKVSCKASGYTFTTYYMHWVRQAPGQGLEWMGWMNPNSGNTGYAQKFQGRVTMTRDTSTSTVYMELSSLRSEDTAVYYCARGHKVDSGYDPYGMDVWGQGTTVTVSS
VL: DIQMTQSPSSLSASVGDRVTITCRASQSIGTYLHWYQQKPGKAPKLLIYAISTLQNGVPSRFSGSGSGTDFTLTISSLQPEDFATYYCQQSYSPPLTFGGGTKVEIKR
notes: scFv
- FACS geometric mean fold change over Jurkat parental [1]: > 30 fold
- FACS geometric mean fold change over Jurkat parental [2]: > 30 fold
- binding result [3]: binds

B15: Polypeptide No. 121 (scFv, V domains shown)
VH: QVQLVQSGAEVKKPGASVKVSCKASGDSFTDYYIHWVRQAPGQGLEWMGWMNPNSGNTGYAQQFQGRVTMTRDTSTSTVYMELSSLRSEDTAVYYCARDREYSSSSRYFDLWGRGTLVTVSS
VL: DIQMTQSPSSLSASVGDRVTITCRASQNIGNWLAWYQQKPGKAPKLLIYAASTLQSGVPSRFSGSGSGTDFTLTISSLQPEDFATYYCQQSYNSITFGPGTKVDIKR
notes: scFv
- FACS geometric mean fold change over Jurkat parental [1]: 10 to 30 fold
- FACS geometric mean fold change over Jurkat parental [2]: 10 to 30 fold
- binding result [3]: binds

B16: Polypeptide No. 122 (scFv, V domains shown)
VH: QVQLVQSGAEVKKPGASVKVSCKASGYTFTDYWLHWVRQAPGQGLEWMGTINPSGGSTSYSHKFQGRVTMTRDTSTSTVYMELSSLRSEDTAVYYCAKEEEGFWSGYAFDYWGQGTLVTVSS
VL: not shown
notes: scFv
- FACS geometric mean fold change over Jurkat parental [1]: 10 to 30 fold
- FACS geometric mean fold change over Jurkat parental [2]: > 30 fold
- binding result [3]: binds

B17: Polypeptide No. 123 (scFv, V domains shown)
VH: EVQLLESGGGLVQPGGSLRLSCAASGFILGNAWMHWVRQAPGKGLEWVASVSGDGSDENYADSVKGRFTISRDNSKNTLYLQMNSLRAEDTAVYYCARDTHDYGDYAPFDYWGQGTLVTVSS
VL: DIQMTQSPSSLSASVGDRVTITCQASQDINNYLNWYQQKPGKAPKLLIYAASNLQSGVPSRFSGSGSGTDFTLTISSLQPEDFATYYCQQTYSFPLTFGGGTKVEIKR
notes: scFv
- FACS geometric mean fold change over Jurkat parental [1]: > 30 fold
- FACS geometric mean fold change over Jurkat parental [2]: > 30 fold
- binding result [3]: binds

B18: Polypeptide No. 124 (scFv, V domains shown)
VH: EVQLVESGGGLVKPGGSLRLSCAASGFTFSSYWMHWVRQAPGKGLEWVAVIWYDGSNKYYADSVKGRFTISRDDSKNTLYLQMNSLKTEDTAVYYCVRDGARSGMDVWGQGTTVTVSS
VL: EIVMTQSPATLSVSPGERATLSCRASQSVSTYVAWYQQKPGQAPRLLIYGASTRATGIPARFSGSGSGTEFTLTISSLQSEDFAVYYCQQYYDTPLTFGGGTKVEIKR
notes: scFv
- FACS geometric mean fold change over Jurkat parental [1]: > 30 fold
- FACS geometric mean fold change over Jurkat parental [2]: > 30 fold
- binding result [3]: binds
